Experimental data taken from patent US20240309076A1 (REGENXBIO, published 2024).
Each block holds one binder with its values, some of them ahead of it.

Molecular target: Tau and AD-associated Tau in brain tissue and brain extracts of patients with tauopathy (AD, PSP, PiD) (human, UniProt P10636-8 2-441, limits assumed, pathologically hyperphosphorylated and aggregated; the sites are not specified)
Assay: cell-based or functional assay

Chain of Tau and AD-associated Tau in brain tissue and brain extracts of patients with tauopathy (AD, PSP, PiD) (P10636 other isoform, or with tags, fused parts or gaps limits assumed): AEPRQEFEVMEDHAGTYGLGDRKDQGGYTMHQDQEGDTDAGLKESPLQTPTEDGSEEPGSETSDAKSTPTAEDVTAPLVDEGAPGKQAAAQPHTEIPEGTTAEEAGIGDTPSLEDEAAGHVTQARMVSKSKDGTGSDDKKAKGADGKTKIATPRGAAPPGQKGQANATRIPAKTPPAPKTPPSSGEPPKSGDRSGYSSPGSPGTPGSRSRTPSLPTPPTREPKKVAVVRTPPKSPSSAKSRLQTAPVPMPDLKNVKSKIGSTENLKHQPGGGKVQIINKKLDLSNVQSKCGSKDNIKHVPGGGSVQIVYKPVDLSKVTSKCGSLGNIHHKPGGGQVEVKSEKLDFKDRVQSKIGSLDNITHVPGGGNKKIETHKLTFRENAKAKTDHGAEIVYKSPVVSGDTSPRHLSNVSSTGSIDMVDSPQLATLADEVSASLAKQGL

- IC50 of Tau aggregation (integrated FRET density) in HEK293T Tau biosensor cells after immunodepletion of AD brain homogenate: 7.1 µg/mL
B1: NI-502.8H1 (antibody, V domains shown)
VH: EVQLVESGGGLVQPGGSLRLSCAASGFTFSIYTMSWVRQAPGKGLEWVSAILSDGSTYYADSVEGRFTISRDNSKTTLYLQMNSLTAEDTAVYYCTKRVEGSFRGWGQGTLVTVSS
VL: EIVMTQSPGTLSLSPGESATLSCRASQSVSTTYLAWYQQKPGQAPRLLIYGASSRATGIPDRFSGSGSGTDFTLTISRLEPEDFAVYYCQQYGGSRLITFGQGTRLEIK

- IC50 of Tau aggregation (integrated FRET density) in HEK293T Tau biosensor cells after immunodepletion of AD brain homogenate: 6.5 µg/mL
B2: NI-502.4P3 (antibody, V domains shown)
VH: EVQLVQSGAEVKKPGESLKISCKVSGYDFSKYWIGWVRQMPGKGLEWMGLIYPGDSDTRYSPSLEGQVSISADKSISAAYLQFSSLKASDSAMYYCVRKGYSAYLGGWFDPWGQGTLVTVSS
VL: DIQLTQSPDSLAASLGERVTINCRSSQNIFYNSNNKNFLAWYQQKAGQSPKLLIYWASTRESGVPDRFSGSGSGTDFTLTISGLQAGDVAVYFCQQYFTDAPTFGGGTKVEIK
